Read-outs that look alike come from different tables or passages of the source.

Common to all, as to experiment: SPR
The target in assay [1] is complement factor H, allotypic variant Ile62 (human) (UniProt P08603).
Assay [2] has the same target. The source holds these as a separate data set.
Assay [3] deals with complement factor H, allotypic variant Val62 (human) (UniProt P08603).

One may read the Kd as the free concentration of one partner at which half of the binding sites on the other are occupied at equilibrium, for simple one-to-one binding. Read a low Kd as a tighter complex. For “C3b (from UniProt P01024 23-667; P01024 749-1663) (domain or fragment)”, the values for the Kd in assay [1], in assay [2] and in assay [3] were 1040 nM, 1030 nM and 1330 nM, respectively.
